{"source": "patent US20240110004", "about": "(published 2024)", "binders": {"B1": {"name": "P1 (peptide)", "chain": "HVLVMSATRR", "modifications": "not fully specified (N-terminus); also: multivalent polymer conjugate"}}, "molecular_target": "VCP (UniProt P55072)", "sequence (P55072 2-806)": "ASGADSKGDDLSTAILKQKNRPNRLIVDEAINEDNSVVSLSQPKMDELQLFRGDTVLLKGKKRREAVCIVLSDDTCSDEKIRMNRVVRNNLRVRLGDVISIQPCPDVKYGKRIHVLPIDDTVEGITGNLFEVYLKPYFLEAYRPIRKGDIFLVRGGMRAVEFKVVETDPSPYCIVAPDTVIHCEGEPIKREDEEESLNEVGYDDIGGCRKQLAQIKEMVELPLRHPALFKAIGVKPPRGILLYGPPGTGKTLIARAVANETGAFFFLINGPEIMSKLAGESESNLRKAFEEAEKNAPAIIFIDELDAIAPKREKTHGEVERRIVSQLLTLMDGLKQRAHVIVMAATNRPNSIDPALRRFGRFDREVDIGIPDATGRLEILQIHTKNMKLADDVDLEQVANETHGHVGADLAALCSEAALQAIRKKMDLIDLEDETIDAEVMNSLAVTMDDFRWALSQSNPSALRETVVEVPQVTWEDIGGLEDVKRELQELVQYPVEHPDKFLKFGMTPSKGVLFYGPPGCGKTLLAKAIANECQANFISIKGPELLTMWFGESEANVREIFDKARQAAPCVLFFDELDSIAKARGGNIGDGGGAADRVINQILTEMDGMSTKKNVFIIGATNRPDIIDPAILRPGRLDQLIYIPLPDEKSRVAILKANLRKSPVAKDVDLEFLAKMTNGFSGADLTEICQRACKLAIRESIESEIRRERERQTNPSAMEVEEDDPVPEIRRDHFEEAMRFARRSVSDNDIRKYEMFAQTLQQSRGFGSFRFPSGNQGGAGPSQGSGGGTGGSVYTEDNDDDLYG", "test": "BLI, VCP immobilized on anti-HIS sensor, analyte in Tris pH 8.4, multivalent", "note": "Where no end group is shown, it is not given here.", "data": [{"binder": "B1", "values": [{"measurement": "Kd", "value": 92, "unit": "nM"}]}]}
